Data published in patent publication US7183387 (Genentech, dated 2007).
Values belong to the binder of their own block, whether it stands above or below them.

Columns and labels:
[1] = biological target: T1, human FcγRIIB α subunit extracellular domain-His6-GST fusion (human, UniProt P31994 43-217); experiment: hexamer ELISA
T1 construct: extracellular domain; also called CD32; not shown: glutathione S transferase (GST)
T1 sequence: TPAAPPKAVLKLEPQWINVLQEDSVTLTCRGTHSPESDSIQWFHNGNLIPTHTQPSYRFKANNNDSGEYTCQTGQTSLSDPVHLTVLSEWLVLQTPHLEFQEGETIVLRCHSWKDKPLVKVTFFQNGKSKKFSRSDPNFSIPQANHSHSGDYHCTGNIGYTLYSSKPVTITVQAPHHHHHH

[2] = biological target: T2, human FcγRIIA-Arg131 α subunit extracellular domain-His6-GST fusion (human, UniProt P12318 34-217); experiment: hexamer ELISA
T2 construct: extracellular domain; also called FcγRIIA-R131; not shown: glutathione S transferase (GST)
T2 sequence: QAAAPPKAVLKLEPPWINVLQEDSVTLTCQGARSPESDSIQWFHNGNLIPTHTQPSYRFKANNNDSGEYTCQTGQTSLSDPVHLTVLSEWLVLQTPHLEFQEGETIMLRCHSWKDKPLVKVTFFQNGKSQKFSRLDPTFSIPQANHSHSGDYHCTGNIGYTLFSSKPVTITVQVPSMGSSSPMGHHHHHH

[3] = biological target: T3, human FcγRIIIA-Phe158 α subunit extracellular domain-His6-GST fusion (human, UniProt P08637 17-208); experiment: hexamer ELISA
T3 construct: extracellular domain; also called FcγRIIIA-F158; CD16; not shown: glutathione S transferase (GST)
T3 sequence (P08637 other isoform, or with tags, fused parts or gaps): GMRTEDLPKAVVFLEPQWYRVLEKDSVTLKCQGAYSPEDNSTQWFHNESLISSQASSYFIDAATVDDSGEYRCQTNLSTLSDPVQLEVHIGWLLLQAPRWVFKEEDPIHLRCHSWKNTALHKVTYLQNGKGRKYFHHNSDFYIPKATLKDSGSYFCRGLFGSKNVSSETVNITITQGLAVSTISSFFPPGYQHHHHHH

[4] = biological target: T4, human FcγRIA α subunit extracellular domain-His6-GST fusion (human, UniProt P12314 16-292); experiment: FcγRI ELISA and THP-1 cells, averaged
T4 construct: extracellular domain; also called GST-FcγRIA; CD64; not shown: glutathione S transferase (GST)
T4 sequence (P12314 other isoform, or with tags, fused parts or gaps): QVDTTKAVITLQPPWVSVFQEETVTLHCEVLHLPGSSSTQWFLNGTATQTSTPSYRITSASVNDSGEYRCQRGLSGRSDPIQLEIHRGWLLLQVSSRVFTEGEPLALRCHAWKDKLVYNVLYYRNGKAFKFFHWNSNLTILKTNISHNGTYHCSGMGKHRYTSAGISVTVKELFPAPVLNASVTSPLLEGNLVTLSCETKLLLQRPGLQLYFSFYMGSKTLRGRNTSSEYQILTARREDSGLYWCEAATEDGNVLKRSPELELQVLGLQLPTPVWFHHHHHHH

[5] = biological target: T5, human neonatal Fc receptor (FcRn), biotinylated (human, UniProt P55899 24-297; P61769 21-119, biotinylated (biotin-X-NHS)); experiment: FcRn ELISA, pH 6.0;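 also: Streptavidin-captured FcRn plates, IgG variants titrated 2 h at pH 6.0, peroxidase anti-human IgG read at 450 nm, variant over standard concentration at the standard curve mid-point absorbance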
T5 construct: captured on streptavidin plates

[6] = biological target: T6, human FcγRIIIA-F158 α subunit extracellular domain-6His-GST fusion (human, UniProt P08637 17-208); experiment: ELISA, IgG:IgE hexamers on receptor-GST
T6 construct: also called FcγRIIIA-Phe158; not shown: glutathione S-transferase (GST)
T6 sequence (P08637 other isoform, or with tags, fused parts or gaps, form in doubt): as the sequence (P08637 other isoform, or with tags, fused parts or gaps) above

[7] = biological target: T7, human FcγRIIB α subunit extracellular domain-6His-GST fusion (human, UniProt P31994 43-217); experiment: ELISA, IgG:IgE hexamers on receptor-GST
T7 construct: not shown: glutathione S-transferase (GST)
T7 sequence: T1 sequence

[8] = biological target: T8, human FcγRIIA-R131 α subunit extracellular domain-6His-GST fusion (human, UniProt P12318 34-217); experiment: ELISA, IgG:IgE hexamers on receptor-GST
T8 construct: also called FcγRIIA-Arg131; not shown: glutathione S-transferase (GST)
T8 sequence: T2 sequence

ratio to native IgG1 [1]: 0.14 ratio | ratio to native IgG1 [2]: 0.13 ratio | ratio to native IgG1 [3]: 0.06 ratio | ratio to native IgG1 [4]: 0.6 ratio | ratio to native IgG1 [5]: 0.97 ratio
B1: anti-IgE E27 IgG1 Ala327Gln (antibody)
heavy: not shown
light: DIQLTQSPSSLSASVGDRVTITCRASKPVDGEGDSYLNWYQQKPGKAPKLLIYAASYLESGVPSRFSGSGSGTDFTLTISSLQPEDFATYYCQQSHEDPYTFGQGTKVEIKRTVAAPSVFIFPPSDEQLKSGTASVVCLLNNFYPREAKVQWKVDNALQSGNSQESVTEQDSKDSTYSLSSTLTLSKADYEKHKVYACEVTHQGLSSPVTKSFNRGEC

ratio to native IgG1 [1]: 0.13 ratio | ratio to native IgG1 [2]: 0.07 ratio | ratio to native IgG1 [3]: 0.09 ratio | ratio to native IgG1 [4]: 0.16 ratio | ratio to native IgG1 [5]: 1.23 ratio
B3: anti-IgE E27 IgG1 Asp265Ala (antibody)
heavy: not shown
light: B1 light
notes: also called G14 D265A

ratio to native IgG1 [6]: 0.76 | ratio to native IgG1 [7]: 0.73 | ratio to native IgG1 [8]: 0.89
B9: E27 IgG1 variant V303(322)L (antibody)
heavy: not shown
light: B1 light
notes: also called IG2 150

ratio to native IgG1 [1]: 0.75 ratio | ratio to native IgG1 [2]: 0.65 ratio | ratio to native IgG1 [3]: 0.45 ratio | ratio to native IgG1 [4]: 0.61 ratio | ratio to native IgG1 [5]: 1.05 ratio
B13: anti-IgE E27 IgG1 Glu269Ala (antibody)
heavy: not shown
light: B1 light
notes: also called E269(282)A

ratio to native IgG1 [1]: 1.2 ratio | ratio to native IgG1 [2]: 1.09 ratio | ratio to native IgG1 [3]: 1.34 ratio | ratio to native IgG1 [4]: 1.06 ratio
B15: anti-IgE E27 IgG1 Ala339Thr (antibody)
heavy: not shown
light: B1 light

ratio to native IgG1 [1]: 0.22 ratio | ratio to native IgG1 [2]: 0.23 ratio | ratio to native IgG1 [3]: 0.06 ratio | ratio to native IgG1 [4]: 0.86 ratio
B16: anti-IgE E27 IgG1 Ala327Ser (antibody)
heavy: not shown
light: B1 light

ratio to native IgG1 [6]: 0.92 | ratio to native IgG1 [7]: 0.81 | ratio to native IgG1 [8]: 0.9
B20: E27 IgG1 variant Y296(313)H (antibody)
heavy: not shown
light: B1 light

ratio to native IgG1 [1]: 0.5 ratio | ratio to native IgG1 [2]: 0.62 ratio | ratio to native IgG1 [3]: 0.25 ratio | ratio to native IgG1 [4]: 1 ratio | ratio to native IgG1 [5]: 0.79 ratio
B24: anti-IgE E27 IgG1 Gln295Ala (antibody)
heavy: not shown
light: B1 light
notes: also called Q295(312)A

ratio to native IgG1 [1]: 0.17 ratio | ratio to native IgG1 [2]: 0.27 ratio | ratio to native IgG1 [3]: 0.89 ratio | ratio to native IgG1 [4]: 0.95 ratio | ratio to native IgG1 [5]: 0.81 ratio
B25: anti-IgE E27 IgG1 Arg292Ala (antibody)
heavy: not shown
light: B1 light
notes: also called R292(309)A

ratio to native IgG1 [1]: 0.68 ratio | ratio to native IgG1 [2]: 0.8 ratio | ratio to native IgG1 [3]: 0.55 ratio | ratio to native IgG1 [4]: 1 ratio | ratio to native IgG1 [5]: 1.45 ratio
B29: anti-IgE E27 IgG1 Asp376Ala (antibody)
heavy: not shown
light: B1 light

Second part, the binder before the results:

B2: anti-IgE E27 IgG1 Arg301Ala (antibody)
heavy: not shown
light: B1 light
ratio to native IgG1 [1]: 1.29 ratio | ratio to native IgG1 [2]: 1.14 ratio | ratio to native IgG1 [3]: 0.22 ratio | ratio to native IgG1 [4]: 1.06 ratio | ratio to native IgG1 [5]: 0.86 ratio

B4: anti-IgE E27 IgG1 Glu333Ala (antibody)
heavy: not shown
light: B1 light
notes: also called G54 E333A
ratio to native IgG1 [1]: 0.76 ratio | ratio to native IgG1 [2]: 0.92 ratio | ratio to native IgG1 [3]: 1.27 ratio | ratio to native IgG1 [4]: 0.98 ratio | ratio to native IgG1 [5]: 1.03 ratio

B5: anti-IgE E27 IgG1 Glu272Ala (antibody)
heavy: not shown
light: B1 light
ratio to native IgG1 [1]: 1.53 ratio | ratio to native IgG1 [2]: 1.23 ratio | ratio to native IgG1 [3]: 0.8 ratio | ratio to native IgG1 [4]: 1.05 ratio | ratio to native IgG1 [5]: 1.34 ratio

B6: anti-IgE E27 IgG1 Gln362Ala (antibody)
heavy: not shown
light: B1 light
notes: also called Gln362A1a
ratio to native IgG1 [1]: 1.02 ratio | ratio to native IgG1 [2]: 1.03 ratio | ratio to native IgG1 [3]: 1.02 ratio | ratio to native IgG1 [4]: 1 ratio | ratio to native IgG1 [5]: 1.25 ratio

B7: anti-IgE E27 IgG1 Ala378Gln (antibody)
heavy: not shown
light: B1 light
ratio to native IgG1 [1]: 1.45 ratio | ratio to native IgG1 [2]: 1.4 ratio | ratio to native IgG1 [3]: 1.19 ratio | ratio to native IgG1 [4]: 1.06 ratio | ratio to native IgG1 [5]: 1.32 ratio

B8: anti-IgE E27 IgG1 Asn315Ala (antibody)
heavy: not shown
light: B1 light
ratio to native IgG1 [1]: 1.3 ratio | ratio to native IgG1 [2]: 1.15 ratio | ratio to native IgG1 [3]: 1.07 ratio | ratio to native IgG1 [4]: 0.99 ratio | ratio to native IgG1 [5]: 0.76 ratio

B10: anti-IgE E27 IgG1 Asp312Ala (antibody)
heavy: not shown
light: B1 light
ratio to native IgG1 [1]: 1.19 ratio | ratio to native IgG1 [2]: 1.2 ratio | ratio to native IgG1 [3]: 1.23 ratio | ratio to native IgG1 [4]: 1.01 ratio | ratio to native IgG1 [5]: 1.5 ratio

B11: anti-IgE E27 IgG1 Asn286Ala (antibody)
heavy: not shown
light: B1 light
ratio to native IgG1 [1]: 1.36 ratio | ratio to native IgG1 [2]: 1.24 ratio | ratio to native IgG1 [3]: 1.05 ratio | ratio to native IgG1 [4]: 0.95 ratio | ratio to native IgG1 [5]: 1.24 ratio

B12: E27 IgG1 variant V303(322)T (antibody)
heavy: not shown
light: B1 light
ratio to native IgG1 [6]: 0.2 | ratio to native IgG1 [7]: 0.34 | ratio to native IgG1 [8]: 0.64

B14: E27 IgG1 variant Y296(313)W (antibody)
heavy: not shown
light: B1 light
notes: also called IG2 186
ratio to native IgG1 [6]: 1.38 | ratio to native IgG1 [7]: 0.93 | ratio to native IgG1 [8]: 0.96

B17: anti-IgE E27 IgG1 Asp280Ala (antibody)
heavy: not shown
light: B1 light
ratio to native IgG1 [1]: 1.6 ratio | ratio to native IgG1 [2]: 1.34 ratio | ratio to native IgG1 [3]: 1.09 ratio | ratio to native IgG1 [4]: 1.04 ratio | ratio to native IgG1 [5]: 0.82 ratio

B18: anti-IgE E27 IgG1 Glu258Ala (antibody)
heavy: not shown
light: B1 light
ratio to native IgG1 [1]: 1.65 ratio | ratio to native IgG1 [2]: 1.33 ratio | ratio to native IgG1 [3]: 1.12 ratio | ratio to native IgG1 [4]: 1.18 ratio | ratio to native IgG1 [5]: 1.18 ratio

B19: anti-IgE E27 IgG1 Arg255Ala (antibody)
heavy: not shown
light: B1 light
ratio to native IgG1 [1]: 1.59 ratio | ratio to native IgG1 [2]: 1.3 ratio | ratio to native IgG1 [3]: 0.98 ratio | ratio to native IgG1 [4]: 0.99 ratio | ratio to native IgG1 [5]: 0.59 ratio

B21: E27 IgG1 variant T335(354)Q (antibody)
heavy: not shown
light: B1 light
notes: also called IG2 171
ratio to native IgG1 [6]: 0.84 | ratio to native IgG1 [7]: 0.79 | ratio to native IgG1 [8]: 0.86

B22: anti-IgE E27 IgG1 Asn276Ala (antibody)
heavy: not shown
light: B1 light
ratio to native IgG1 [1]: 1.34 ratio | ratio to native IgG1 [2]: 1.29 ratio | ratio to native IgG1 [3]: 0.95 ratio | ratio to native IgG1 [4]: 1.05 ratio | ratio to native IgG1 [5]: 1.15 ratio

B23: anti-IgE E27 IgG1 Asn297Ala (antibody)
heavy: not shown
light: B1 light
notes: removes the Asn-linked glycosylation site
ratio to native IgG1 [1]: 0.1 ratio | ratio to native IgG1 [2]: 0.05 ratio | ratio to native IgG1 [3]: 0.03 ratio | ratio to native IgG1 [5]: 0.8 ratio

B26: E27 IgG1 variant T335(354)K (antibody)
heavy: not shown
light: B1 light
notes: also called IG2 195
ratio to native IgG1 [6]: 1.3 | ratio to native IgG1 [7]: 1.14 | ratio to native IgG1 [8]: 1.19

B27: anti-IgE E27 IgG1 Ala327Gly (antibody)
heavy: not shown
light: B1 light
ratio to native IgG1 [1]: 0.83 ratio | ratio to native IgG1 [2]: 0.92 ratio | ratio to native IgG1 [3]: 0.36 ratio | ratio to native IgG1 [4]: 0.96 ratio

B28: anti-IgE E27 IgG1 Gln311Ala (antibody)
heavy: not shown
light: B1 light
ratio to native IgG1 [1]: 1.19 ratio | ratio to native IgG1 [2]: 1.11 ratio | ratio to native IgG1 [3]: 0.92 ratio | ratio to native IgG1 [4]: 0.93 ratio | ratio to native IgG1 [5]: 1.62 ratio
